The DeepSol protein solubility set

Test: soluble on expression in E. coli; label from the status in PepcDB or PDB records

Row | Sequence | soluble on expression in E. coli
1 | MSETFSGFDTAPVARVQAAFEEIAHRSMHDLSFLHPTMPVHVSDFTLFEGQWTGTVITPWMLSALIFPGPDQIWPRRTVGEKLGLQLPYGTMTFTVGELEGVSQYLACSLMSPLSRSLSPEEGVRLADDCARMLLSLPVSNPDAPQTSRRALLFGRRSCENA | not soluble
2 | MSETLDQWRAGLTLGFAPGHAGRTVLRERAHYGPMLVQRALYPEGPQVCHVAILHPPSGIAGGDALEIRVDVAGGARAALTTPGATRWYKSNGRQASQDVHLRVAAGGRLDWLPLESIFFEEADALARNRIQLESGAAAIGWDLIQLGRVNQSGHWSQGRLHTATELYVDGRLLWVDQGLVGAQDDVRRQVSGLAGFPVHAALWSFGPRLDAEQNEELAGLMPWSDTLRGAATTMPYDATQSLCLVRCLGVHMEDVRAVMTDAWAYLRPRVLDTPAVVPRLWATKLAAALEHHHHHH | not soluble
3 | MSETRRNQSSDEQIEKSEIQHQRVVIENSHGEKLVGVLHDTGSTETVVICHGFRSSKNRIPMLTIASFFERAMISSFRFDFAGNGESQGSFQYGNYRREVEDLRSVLQHLRGVNRVISAIIGHSKGGNVVLLYAAKYNDVQTVVNISGRFFLDRGIEFRLGKDYFKRIKDNGFIDVSNRKGKFEYRVTEESLMDRLTTNAHEACLSIRENCRVLTVHGSNDRIVHVTEASEFAKQIKNHKLYVIEGADHEFTSHQHQLASIVLSFFKLDPKKDDESGDISTSNQDSMRSVVPITSRI | soluble
4 | MSEVIDLASPIEAHGETLSQVTFRRPTAQEARAIKALPYKIDKNEDVSLDLDVAAKYIAVCAGIPPSSVNQMDLCDINTLSWKVASFFMAAASATLKD | soluble
5 | MSEVVKKFMYLNRKAPYGTIYAWEALEVVLIGAAFDQDVCVLFLDDGVYQLTRGQDTKGIGMKNFSPTYRTLGDYEVRRIYVDRDSLEARGLTQDDLVEIAFEDMETEEEFDNIVEVIDSARVSELMNESDAVFSF | soluble
6 | MSFDADEEILQDFLVEAGEILEQLSEQLVELESRPDDMDLLNAIFRGFHTVKGGAGFLQLNALVECCHIAENVFDILRKGERRVSSELMDVVLQALDTVNAMFDQVREQSEPTPATPELLAALARLAEPEGAEPAEPVQAPPAAVPPAEPAAPPEAPAQSASSDITDDEFEQLLDALQGDEAPASAVAEAPAAPAGDEISDAEFEALLDQLHGKGKFVPPAVSAEPAQVPAEAVEPAAAAAGDDISDDEFEALLDELHGKGKFGDVPEAAGTPAAPAAAAPAAAPAEQGKAPAAAGGDEISDDEFESLLDELHGKGKFNGASEAVAAAAAVAKNIAAKSPAAKPVAPAKAAAARPAAPDRPAASEAETTVRVDTARLDEIMNMVGELVLVRNRLVRLGLNSGDEAMAKAVANLDVVTGDLQMSVMKTRMQPIKKVFGRFPRLVRDLARNMKKEINLELVGEETDLDKNLVEALADPLVHLVRNAVDHGIESPEEREAAGKPRVGQVVLSAEQEGDHILLMITDDGKGMDAEVLRNKAVEKGLLERDAADRLTDLECYNLIFAPGFSTKTEISDVSGRGVGMDVVKTKISQLNGTVNVFSQKGSGSKIVIKVPLTLAIMPTLMVMLGSQAFAFPLVNVNEIFHLDLSRTNVVDGQEVVIVRDKALPLFYLKRWLVPSAAHEEQGEGHVVILSVGTQRIGFVVDQLVGQEEVVIKPLGKMLQGTPGMAGATITGDGRIALILDVPSMLKRYARRI | not soluble
7 | MSFDANIATQYYILMTIKTFRCADPETLFKLGRVARFVNIERPALRKLKQLDLARCIEDIRVPPANRPEILKGDRAGQHSIRINDQWRVCFRWTGTDAEDVEIVDYH | not soluble
8 | MSFEKLQKELHEAIEGVNRYNPENVADLAACVQAMVNENKYDKDIVLTILKLYQLNPEKYDEAVVRQVLLKTLMVLPSSDFALAKCLIDTNRLGSQELRRIFDLGAVLESCNFAVFWKLVKGAYKPTTNPNEPFKVPGEVPKMIKPMVGFEDAVKHYACRVISVTFQKIEKKMLSRLLGGASDKEVTALAQSFGWEAKENGDVFFVANHEGTIKTRNIDEKIQFPHVADLLTSIQPPLTL | not soluble
9 | MSFFHASQRDALNQSLAEVQGQINVSFQFFPPRTSEMEQTLWNSIDRLSSLKPKFVSVTYGANSGERDRTHSIIKGIKDRTGLEAAPHLTCIDATPDELRTIARDYWNNGIRHIVALRGDLPPGSGKPEMYASDLVTLLKEVADFDISVAAYPEVHPEAKSAQADLLNLKRKVDAGANRAITQFFFDVESYLRFRDRCVSAGIDVEIIPGILPVSNFKQAKKFADMTNVRIPAWMAQMFDGLDDDAETRKLVGANIAMDMVKILSREGVKDFHFYTLNRAEMSYAICHTLGVRPGLLEHHHHHH | soluble
10 | MSFKDPPTLQQLARRSLLKDEALTISALPNLPVQLFPPLFKDAFTSRQRKILSLMVATWPFPVLPVGALCGIDHLETLKAVLDGLDLLMSQKDRPSRWNLQVLDLRDAHQDFWDGWAGLLHEVCSQDVFGKNQPVGNHPIPGGKQTISIKMNLSLKYCRRHSHCENLNYLYYWAKQRKDVIQVIFEKLEFTGKHCLRLKLWRLLKLSFVASIQELTIKSIHWDIYNLALIASCLGQMKNLQKLILMNIRRPSSLTDLQEARIITEIFSEFSKLHKLQHLYVNDVYFLKERLDLMLRCFERPLETLTITYCKLSESDMRYLSQCPSIHQLKYLDMSYTTFKPSSHRFLGFLGSLLERLTATLQTLKLECFHLTDSRIRDLLPGLSQCSQLTEVDFVENKFSMVSLKTLLQHTANLTQLTLEKYPAPDEVYDDSLCVIPDRFVQLCSELMNTLKGVRQPKQVYFESTIYSPNFEYLVYNLEGMVSSEPLRRRGRGMVIYISG | not soluble
11 | MSFLEKLVAKYEPIKEEKPKLVPKPTRKRQPETTEIVVKTRRITRRNAKAPVKEEEIGHQKAQITIVDDEEFMEQPVQEPIEIEEEQQEESHLEIALPEQPNHEPMQSSPSLPRKSFKPDMHPIAKKGGKICIVDLGLTSHTLPTEQTPGFLKRLGENVGGSIDYSYESIDELIRTAPDAWSKASMGAIRGVMLMQELVTERSMHPKSKPMEKNRLLGEEMAKLNPNDFLNHKLLEVSSLDQTVFINVNLVFSALSIQHGSVRSIVNAMSNHWIDYLIPREQQGSFTTSKKTEPLTFFPGDLTNWPAALLAAAIKLDNDQVDVTRLPSVVNMLFKHHIKVRFDHARGLYRTKHDGQNPPKIVLPKRPIIDCTQFYKSSEDIDEEQVPSTSNFQSSSNSLSTSKSAGREHIPDSP | not soluble
12 | MSFLVLPPEVNSALMFAGAGSGPTLAAAAAWDGLAAELGQAANSFSSATAALADTAWQGPAATAMAAAAAPYASWLSTAATRALSAAAQAKAAAAVYEAARAATVDPLLVAANRHQLVSLVLSNLFGQNAPAIAATEAAYEQLWAADVAAMVSYHSGASAVAAQLAPWAQAVRALPNPTAPALASGPAALAIPALGIGNTGIGNIFSIGNIGDYNLGNGNTGNANLGSGNTGQANLGSGNTGFFNFGSGNTANTNFGSGNLGNLNLGSGNDGNGNFGLGNIGDGNRGSGNVGSFNFGTANAGSFNVGSANHGSPNVGFANLGNNNLGIANLGNNNLGIANLGNNNIGIGLTGDNMIGIGALNSGIGNLGFGNSGNNNIGLFNSGNNNIGFFNSGDSNFGFFNSGDTNTGFGNAGFTNTGFGNAGSGNFGFGNAGNNNFGFGNSGFENMGVGNSGAYNTGSFNSGTLNTGDLNSGDFNTGWANSGDINTGGFHSGDLNTGFGSPVDQPVMNSGFGNIGTGNSGFNNSGDANSGFQNTNTGAFFIGHSGLLNSGGGQHVGISNSGTGFNTGLFNTGFNNTGIGNSATNAAFTTTSGVANSGDNSSGGFNAGNDQSGFFDG | not soluble
13 | MSFNTIIDWNSCTAEQQRQLLMRPAISASESITRTVNDILDNVKARGDEALREYSAKFDKTTVTALKVSAEEIAAASERLSDELKQAMAVAVKNIETFHTAQKLPPVDVETQPGVRCQQVTRPVASVGLYIPGGSAPLFSTVLMLATPASIAGCKKVVLCSPPPIADEILYAAQLCGVQDVFNVGGAQAIAALAFGTESVPKVDKIFGPGNAFVTEAKRQVSQRLDGAAIDMPAGPSEVLVIADSGATPDFVASDLLSQAEHGPDSQVILLTPAADMARRVAEAVERQLAELPRAETARQALNASRLIVTKDLAQCVEISNQYGPEHLIIQTRNARELVDSITSAGSVFLGDWSPESAGDYASGTNHVLPTYGYTATCSSLGLADFQKRMTVQELSKEGFSALASTIETLAAAERLTAHKNAVTLRVNALKEQA | soluble
14 | MSFQEIPIIDLQEAFDPATRSKFLEEVRDAIINVGFLLLKNYESLGPTEEDLQSIKQQAIEFFALPAKEKLQCEMLNSPHFLGYTRLANEITASHTDWREQIDLATELPAPKEGEPLYKNIEGPNLWPNPEVIPKFRPTIERFIEKMTALSNVFKDLVAESIGVDPKALNRYFKENQQCKMKLIAYPDVSELDGTKSAALDDTPETNQGVEPHRDSDLITYIYQATEHQNSLQVQNFQGHWITVPNIPGHLVVNNGQTLQAITGGVAKATIHRVLVPEKGTGTRISIPFFQTIDLDSSKGVVDNLPQEVIDLKNERDKKIKDWGVDTGFQFEPDVSKEPIGHAVFRNRIKSHQDVAKKWYPDVLKSVLQEYTH | soluble
15 | MSFQLDQSTSVIKTAPPGRLEFKNEPIDIASSNIQDLAKMQTLDGYYQQTSLQLPQSQQYHRMYENVYNNQQILYAQTQNFQYPSTLLTNGSLAQTEWRGQQMDTSAYSNTGYSRSSTSQQPQYTQQVTENERIVYKPVDMPSPVDSGIGGDISILNPKEEFFTSADGGSMLERSSERTLSHRDSPLVIPKLYNNLGFQYVLEAPISTSVRRDDDRMTYVNKGQFYTVSLEYTPDLNKCLKSQTVKSQLMVVFREDKTYEEEIKTWQSWHARQHVSKQRILEIDSKNSSGMIGQIEEIGNNAVQFYWNPSDPSGVRISIAVQCLSTDFSTQKGVKGLPLHVQIDTYDGENDKVPFHRGYCQIKVFCDKGAERKLRDEDKRAQKRKVQEYTAGALPGGRKKSDGEYHDQCERSEFYHMRELDKPAALFIAPEEFEPRYVDSTSLSFDMSEIEPIPTKRPRTSERIMLYVRKRDEQIYQPLHVVPASLSGLALAIANKFGADPDKMSGVYKRCAKGITVKVDDEMLRLYCNEDTFIIDVEHATDGSTAATLIEVAPTNPNSYSNS | not soluble
16 | MSFVQIRHISSQINRKTVSIVGSGPSGFYTAYHLLKKSPIPLNVTIWEKLPVPFGLSRYGVAPDHPEVKNCEETFTTCAEEFSSPTNQKHKFSFVGGITIGKEILLKELLDNQDAVILSYGCTGDRKLNIPGELGTKGVFSSREFVNWYNGHPDFAKDKRFTDFDWSKVSKVGIIGNGNVALDITRVLISNQIDEIWENTDISSLALNLLRRAPVKDVKLIARRDFVHSKFTNKELRELWELEKYGIRGRIDPKFFQKEMFDPSKYDRAFNRRVEMCSEYLKPFNERSKKNYKKAPPPSSGYDKFWELDYLKTPLKINRDDFGAINSLSLCNNRLNEDNSLQPLKDVNNIMTYKVDLLITSLGYAGVPMPEFSKLSIGFDKDHIANKQGRVLTSSGEIFPHLYASGWIRKGSQGVIASTMQDAFEVGDRVIQDLVVSGALSLENSIDLSNIKHTTWKDWERINKKELLRGKKEHKTRSKFLTFEELWNGVEGI | soluble
17 | MSFVQPGLAQEKERMWRTLTVSGRGVESIPTTLSEVSLGVEIQGKTAQEVQHEAARRSSAVVALLKSRNVEKLQTTGIRLNPVYSYNNNVQRITGYAASNTVNFRIATEKAGTLLDEAVKAGATQINGISFVATDEAIASARQQALKEATQDAQQQASAVFSSLGFQAKEVVSIQVGGATAPPPPILYRAEAAKLSSADASTPVIGGEQQVEASVTLQISYLEHHHHHH | soluble
